Measurements from paper PMC4117528.

Tests used:
[1] = target: PhaP from Azotobacter sp. FA8 (Azotobacter sp. FA8); test: SEC-MALS; 90° static light scattering (PD2010) with differential refractometer in tandem with analytical Superdex 200; 25 µM protein; 20 mM sodium phosphate pH 7.4, 150 mM NaCl, 1 mM DTT; average molecular weight of the oligomer
[2] = SEC; analytical Superdex 200 calibrated with globular proteins; 25 µM protein; 20 mM sodium phosphate, 50 mM NaCl pH 7.3, 1 mM DTT

stoichiometry N [1]	Substance	apparent number of monomers (SEC, globular calibration) [2]
4	PhaP from Azotobacter sp. FA8 (natural protein)	–
–	PhaP from Azotobacter sp. FA8	This molecular weight corresponds to 9 monomers
